The source of these data is patent publication US20050053990.

Holding throughout (experiment): cleavage_in_vitro
The subject of data set [1] is AvaII. The conditions noted are these: DNA strand 100% cleaved; NEBuffer 4 (Mg2+), 37 C, 4 h; Table 1 does not name the oligos.
Data set [2] has as its system BtsI. The conditions noted are these: DNA strand 100% cleaved.
In data set [3] the test system is Sau3AI. The conditions noted are these: DNA strand 0% cleaved.
Data set [4] has as its system SfaNI. The conditions noted are these: DNA strand 100% cleaved.
Data set [5] relates to Cac8I. As to conditions: DNA strand 100% cleaved; NEBuffer 3, 37 C, 4 h; Table 1 does not name the oligos.

With “AAAGCUAAGCGGACCGAGUCGACUGCAUCGUCAUGAAAAAA / TTTTTTCATGACGATGCAGTCGACTCGGTCCGCTTAGCTTT [A/B RNA/DNA duplex]”, the activity (% RNA strand cleaved) in data set [1] stood at 100.

Consider BtsI site RNA/DNA duplex, for which the activity (% RNA strand cleaved) in data set [2] is 70.

The substance Sau3AI site RNA/DNA duplex registered an activity (% RNA strand cleaved) in data set [3] of 80.

On to SfaNI site RNA/DNA duplex, for which the activity (% RNA strand cleaved) in data set [4] was determined as 100.

“UAAAGGCGCGCCCGCAUGCUUUA / TAAAGCATGCGGGCGCGCCTTTA [I/L RNA/DNA duplex]” showed an activity (% RNA strand cleaved) in data set [5] of 100.
